Reference: patent publication US20030086940A1

Tests used:
porcine CD86 (porcine) = test: cell-based or functional assay
[1] = molecular target: human CTLA4-human CD59 chimeric molecule with a human CD59 leader sequence and an (AS)3 linker (human); test: flow cytometry, PAEC HT 48-hCCl (low hCTLA4-hCD59); mean ± SE, n=4
[2] = molecular target: human CTLA4-human CD59 chimeric molecule with a human CD59 leader sequence and an (AS)3 linker (human); test: flow cytometry, PAEC Control-hCCh (pig #51, high hCTLA4-hCD59); mean ± SE, n=4
[3] = molecular target: human CTLA4-human CD59 chimeric molecule with a human CD59 leader sequence and an (AS)3 linker (human); test: flow cytometry, PAEC HT 49-hCCm (medium hCTLA4-hCD59); mean ± SE, n=4
[4] = molecular target: human CTLA4-human CD59 chimeric molecule with a human CD59 leader sequence and an (AS)3 linker (human); test: flow cytometry, PAEC Control-hCCm (pig #51, medium hCTLA4-hCD59); mean ± SE, n=4
human CD28 (human) = human CD28 (human) (UniProt P10747); test: cell-based or functional assay
Chain of UniProt P10747 (P10747 19-220): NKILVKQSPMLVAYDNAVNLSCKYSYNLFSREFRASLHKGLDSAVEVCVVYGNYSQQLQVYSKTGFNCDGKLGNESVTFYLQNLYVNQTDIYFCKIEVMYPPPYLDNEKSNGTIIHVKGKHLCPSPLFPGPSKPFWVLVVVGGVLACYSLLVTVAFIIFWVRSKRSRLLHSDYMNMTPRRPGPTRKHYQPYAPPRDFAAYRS

Chain of human CTLA4-human CD59 chimeric molecule with a human CD59 leader sequence and an (AS)3 linker (human) (chain, as listed by the source mutant limits assumed): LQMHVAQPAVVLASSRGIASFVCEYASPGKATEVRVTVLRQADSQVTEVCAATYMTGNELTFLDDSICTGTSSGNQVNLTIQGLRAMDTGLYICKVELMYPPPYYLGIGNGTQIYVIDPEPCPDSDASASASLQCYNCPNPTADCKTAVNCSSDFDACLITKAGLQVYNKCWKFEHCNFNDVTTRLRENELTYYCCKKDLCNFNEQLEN

Substance: human CTLA4-human CD59 chimeric molecule with a human CD59 leader sequence and an (AS)3 linker
- IL-2 secreted from Jurkat cells co-cultured with PI-PLC treated hCTLA4-hCD59 PAEC (porcine CD86 (porcine)): 570 pg/mL
- IL-2 secreted from Jurkat cells co-cultured with hCTLA4-hCD59 PAEC (fold decrease) (porcine CD86 (porcine)): 5

Substance: mouse monoclonal antibody BNI3 (Immunotech), specific for hCTLA4
- mean fluorescence intensity [1]: 10.2 MFI
- mean fluorescence intensity [2]: 112 MFI
- mean fluorescence intensity [3]: 30.9 MFI
- mean fluorescence intensity [4]: 101 MFI

Substance: porcine CD86 (ligand)
- IL-2 secreted from Jurkat cells co-cultured with vector control PAEC and PHA (ELISA) (human CD28 (human)): 400 pg/mL
